Source: article PMC3575409, “Identification of a Novel Protein-Protein Interaction Motif Mediating Interaction of GPCR-Associated Sorting Proteins with G Protein-Coupled Receptors” (PLoS ONE, 2013)

Tests used:
[1] = target: GST-fused C-tail of the β1 adrenergic receptor (residues 373–477); assay: GST pull-down; conditions: parent: est. 100; read off a plot
[2] = target: T1, GST-fused C-tail of the calcitonin receptor (residues 407–490); assay: GST pull-down; conditions: parent: est. 100; read off a plot
T1 sequence (P30988 whole entry, species assumed, looked up): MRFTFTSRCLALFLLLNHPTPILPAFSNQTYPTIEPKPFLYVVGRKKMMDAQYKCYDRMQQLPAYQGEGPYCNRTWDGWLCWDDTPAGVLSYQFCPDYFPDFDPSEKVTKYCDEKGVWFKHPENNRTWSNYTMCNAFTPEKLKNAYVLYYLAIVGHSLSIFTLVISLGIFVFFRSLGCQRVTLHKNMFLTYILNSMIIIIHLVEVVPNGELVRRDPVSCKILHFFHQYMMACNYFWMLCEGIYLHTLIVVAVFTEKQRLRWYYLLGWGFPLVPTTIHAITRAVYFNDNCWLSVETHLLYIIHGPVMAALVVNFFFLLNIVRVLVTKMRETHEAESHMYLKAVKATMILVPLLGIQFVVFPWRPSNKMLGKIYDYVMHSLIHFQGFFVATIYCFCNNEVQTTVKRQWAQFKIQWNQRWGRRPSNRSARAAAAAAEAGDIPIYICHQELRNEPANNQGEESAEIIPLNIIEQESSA

[3] = target: GST-fused C-tail of the muscarinic M1 acetylcholine receptor (residues 414–460); assay: GST pull-down; conditions: parent: est. 100; read off a plot
[4] = target: GST-fused C-tail of the β1 adrenergic receptor (residues 373–477); assay: pull-down; GST-fused receptor C-tails immobilized on glutathione-Sepharose beads, incubated with [35S]-labelled in vitro translated GASPs 1 h at 4°C; 20 mM Tris-HCl pH 7.4, 150 mM NaCl, 1 mM EDTA, 1 mM DTT, 10% glycerol, 1% Triton X-100; Phosphor-imager quantification
[5] = target: GST-fused C-tail of the histamine 2 receptor (residues 284–349); assay: as above
[6] = target: GST-fused C-tail of the insulin growth factor I receptor (residues 1268–1367); assay: as above
[7] = target: T1, GST-fused C-tail of the calcitonin receptor (residues 407–490); assay: as above
[8] = target: GST-fused C-tail of the δ-opioid receptor (residues 314–372); assay: as above
[9] = target: free GST; assay: as above
[10] = target: GST-fused C-tail of the α isoform of the thromboxane A2 receptor (residues 304–343); assay: as above
[11] = target: GST-fused C-tail of the muscarinic M1 acetylcholine receptor (residues 414–460); assay: as above
[12] = target: GST-fused C-tail of the type III transforming growth factor β receptor (residues 805–849); assay: as above
Chain of GST-fused C-tail of the type III transforming growth factor β receptor (residues 805–849) (Q03167 805-849): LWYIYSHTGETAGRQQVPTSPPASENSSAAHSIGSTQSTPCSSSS

Chain of GASP-9 (Q7L311 whole entry): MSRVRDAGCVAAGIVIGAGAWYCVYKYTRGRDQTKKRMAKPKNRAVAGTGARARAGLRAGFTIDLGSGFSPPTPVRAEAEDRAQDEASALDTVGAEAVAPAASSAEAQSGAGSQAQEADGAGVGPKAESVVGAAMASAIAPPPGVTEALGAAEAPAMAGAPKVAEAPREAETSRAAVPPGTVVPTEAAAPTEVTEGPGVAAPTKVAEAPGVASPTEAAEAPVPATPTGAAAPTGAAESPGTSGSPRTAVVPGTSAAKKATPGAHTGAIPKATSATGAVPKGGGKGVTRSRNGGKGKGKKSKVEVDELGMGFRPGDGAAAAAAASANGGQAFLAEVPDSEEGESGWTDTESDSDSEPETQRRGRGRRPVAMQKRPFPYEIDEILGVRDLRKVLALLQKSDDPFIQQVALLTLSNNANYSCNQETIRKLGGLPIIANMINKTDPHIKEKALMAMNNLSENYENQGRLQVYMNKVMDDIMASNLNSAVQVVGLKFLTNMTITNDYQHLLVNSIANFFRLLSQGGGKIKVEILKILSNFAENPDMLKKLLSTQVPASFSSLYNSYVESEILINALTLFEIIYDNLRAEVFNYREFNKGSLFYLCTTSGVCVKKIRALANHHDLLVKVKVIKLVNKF
Chain of GPCR-associated sorting protein 2 (GASP-2), full-length (from UniProt Q96D09) SWFW>AAAA in first GASP motif; SWFW>AAAA in second GASP motif (GASP2-dm; residue numbers not printed) (Q96D09 whole entry, change not shown): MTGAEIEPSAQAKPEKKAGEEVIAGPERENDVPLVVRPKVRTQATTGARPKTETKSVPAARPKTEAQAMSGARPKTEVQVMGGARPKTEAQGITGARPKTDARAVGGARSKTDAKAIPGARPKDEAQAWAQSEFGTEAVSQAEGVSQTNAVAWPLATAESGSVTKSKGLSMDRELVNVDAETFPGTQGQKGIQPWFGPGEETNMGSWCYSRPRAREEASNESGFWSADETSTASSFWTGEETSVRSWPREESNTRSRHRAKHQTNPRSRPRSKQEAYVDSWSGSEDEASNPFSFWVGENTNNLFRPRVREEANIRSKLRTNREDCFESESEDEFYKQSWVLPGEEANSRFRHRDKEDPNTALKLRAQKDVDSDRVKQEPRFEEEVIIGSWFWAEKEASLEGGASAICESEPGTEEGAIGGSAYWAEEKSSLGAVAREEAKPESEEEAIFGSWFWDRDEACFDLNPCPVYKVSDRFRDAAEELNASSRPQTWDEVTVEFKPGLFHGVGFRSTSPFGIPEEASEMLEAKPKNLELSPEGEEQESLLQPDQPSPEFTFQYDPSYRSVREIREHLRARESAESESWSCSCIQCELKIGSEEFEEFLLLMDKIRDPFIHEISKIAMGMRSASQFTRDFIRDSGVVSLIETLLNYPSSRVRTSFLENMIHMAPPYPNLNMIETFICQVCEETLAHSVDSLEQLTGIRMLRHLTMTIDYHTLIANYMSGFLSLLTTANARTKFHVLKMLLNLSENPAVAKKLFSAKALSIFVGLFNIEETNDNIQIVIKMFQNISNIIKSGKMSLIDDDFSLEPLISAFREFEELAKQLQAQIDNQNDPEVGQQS
Chain of GPCR-associated sorting protein 2 (GASP-2), full-length (from UniProt Q96D09) SWFW>AAAA in second GASP motif (GASP2-m2; residue numbers not printed) (Q96D09 whole entry, change not shown): as above
Chain of GPCR-associated sorting protein 2 (GASP-2), full-length (from UniProt Q96D09) SWFW>AAAA in first GASP motif (GASP2-m1; residue numbers not printed) (Q96D09 whole entry, change not shown): as above
Chain of GST-fused C-tail of the insulin growth factor I receptor (residues 1268–1367) (P08069 1268-1367): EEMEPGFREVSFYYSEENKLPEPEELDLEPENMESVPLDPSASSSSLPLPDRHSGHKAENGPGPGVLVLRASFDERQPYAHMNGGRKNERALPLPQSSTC
Chain of GST-fused C-tail of the histamine 2 receptor (residues 284–349) (P25021 284-349): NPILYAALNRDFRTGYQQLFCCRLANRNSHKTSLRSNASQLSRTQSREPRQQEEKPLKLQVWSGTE

GPCR-associated sorting protein 2 (GASP-2), full-length (from UniProt Q96D09) SWFW>AAAA in first GASP motif; SWFW>AAAA in second GASP motif (GASP2-dm; residue numbers not printed)
percent of parent (% of wild-type GASP-2) [1]: 1.5 | percent of parent (% of wild-type GASP-2) [2]: 20 | percent of parent (% of wild-type GASP-2) [3]: 5.5

GPCR-associated sorting protein 2 (GASP-2), full-length (from UniProt Q96D09) SWFW>AAAA in second GASP motif (GASP2-m2; residue numbers not printed)
percent of parent (% of wild-type GASP-2) [1]: 11 | percent of parent (% of wild-type GASP-2) [3]: 20

GPCR-associated sorting protein 2 (GASP-2), full-length (from UniProt Q96D09) SWFW>AAAA in first GASP motif (GASP2-m1; residue numbers not printed)
percent of parent (% of wild-type GASP-2) [1]: 27 | percent of parent (% of wild-type GASP-2) [3]: 24

GASP-9 (from UniProt Q7L311 1-632) (natural protein)
percent of GASP input retained (% of GASP input) [4]: 2 | percent of GASP input retained (% of GASP input) [5]: 2 | percent of GASP input retained (% of GASP input) [6]: < 1 | percent of GASP input retained (% of GASP input) [7]: 2 | percent of GASP input retained (% of GASP input) [8]: 2 | percent of GASP input retained (% of GASP input) [9]: < 1 | percent of GASP input retained (% of GASP input) [10]: 2 | percent of GASP input retained (% of GASP input) [11]: 2 | percent of GASP input retained (% of GASP input) [12]: < 1
